According to paper PMC5291270:

T1: Flag-SA1 WT (UniProt Q8WVM7)
T1 sequence: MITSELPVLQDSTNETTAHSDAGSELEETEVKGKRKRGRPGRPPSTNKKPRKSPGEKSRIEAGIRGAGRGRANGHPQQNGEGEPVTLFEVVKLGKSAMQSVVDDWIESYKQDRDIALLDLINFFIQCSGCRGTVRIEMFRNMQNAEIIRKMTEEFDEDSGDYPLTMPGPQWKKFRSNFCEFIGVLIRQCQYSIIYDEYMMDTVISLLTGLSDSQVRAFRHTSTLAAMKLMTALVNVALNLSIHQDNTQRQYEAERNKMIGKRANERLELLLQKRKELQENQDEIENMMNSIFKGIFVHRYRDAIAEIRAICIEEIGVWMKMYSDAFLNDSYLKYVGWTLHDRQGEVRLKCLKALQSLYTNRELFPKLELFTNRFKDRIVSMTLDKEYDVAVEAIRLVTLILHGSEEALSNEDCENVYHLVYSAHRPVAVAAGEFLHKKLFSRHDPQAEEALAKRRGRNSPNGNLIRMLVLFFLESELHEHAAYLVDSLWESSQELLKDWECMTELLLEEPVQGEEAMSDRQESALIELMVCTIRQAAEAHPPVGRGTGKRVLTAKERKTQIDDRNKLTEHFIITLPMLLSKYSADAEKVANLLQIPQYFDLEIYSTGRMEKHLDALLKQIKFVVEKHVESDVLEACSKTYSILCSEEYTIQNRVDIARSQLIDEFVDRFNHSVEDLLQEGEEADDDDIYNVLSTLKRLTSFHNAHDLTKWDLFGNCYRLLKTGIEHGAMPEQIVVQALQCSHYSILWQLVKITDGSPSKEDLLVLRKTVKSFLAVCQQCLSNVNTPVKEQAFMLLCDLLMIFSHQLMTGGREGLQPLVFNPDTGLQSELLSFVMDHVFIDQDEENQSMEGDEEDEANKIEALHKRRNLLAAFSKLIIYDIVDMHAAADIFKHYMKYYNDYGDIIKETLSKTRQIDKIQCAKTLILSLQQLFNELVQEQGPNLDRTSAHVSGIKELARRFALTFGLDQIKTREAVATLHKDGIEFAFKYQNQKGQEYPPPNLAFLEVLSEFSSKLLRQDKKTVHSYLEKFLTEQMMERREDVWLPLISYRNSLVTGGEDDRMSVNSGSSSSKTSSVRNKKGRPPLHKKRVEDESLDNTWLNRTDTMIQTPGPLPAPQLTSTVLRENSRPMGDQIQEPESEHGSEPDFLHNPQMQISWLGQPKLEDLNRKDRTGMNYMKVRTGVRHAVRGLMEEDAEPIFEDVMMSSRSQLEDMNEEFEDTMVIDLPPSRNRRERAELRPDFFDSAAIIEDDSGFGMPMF

T2: Flag-SA1 WT (UniProt Q8WVM7 1-1258)
T2 sequence: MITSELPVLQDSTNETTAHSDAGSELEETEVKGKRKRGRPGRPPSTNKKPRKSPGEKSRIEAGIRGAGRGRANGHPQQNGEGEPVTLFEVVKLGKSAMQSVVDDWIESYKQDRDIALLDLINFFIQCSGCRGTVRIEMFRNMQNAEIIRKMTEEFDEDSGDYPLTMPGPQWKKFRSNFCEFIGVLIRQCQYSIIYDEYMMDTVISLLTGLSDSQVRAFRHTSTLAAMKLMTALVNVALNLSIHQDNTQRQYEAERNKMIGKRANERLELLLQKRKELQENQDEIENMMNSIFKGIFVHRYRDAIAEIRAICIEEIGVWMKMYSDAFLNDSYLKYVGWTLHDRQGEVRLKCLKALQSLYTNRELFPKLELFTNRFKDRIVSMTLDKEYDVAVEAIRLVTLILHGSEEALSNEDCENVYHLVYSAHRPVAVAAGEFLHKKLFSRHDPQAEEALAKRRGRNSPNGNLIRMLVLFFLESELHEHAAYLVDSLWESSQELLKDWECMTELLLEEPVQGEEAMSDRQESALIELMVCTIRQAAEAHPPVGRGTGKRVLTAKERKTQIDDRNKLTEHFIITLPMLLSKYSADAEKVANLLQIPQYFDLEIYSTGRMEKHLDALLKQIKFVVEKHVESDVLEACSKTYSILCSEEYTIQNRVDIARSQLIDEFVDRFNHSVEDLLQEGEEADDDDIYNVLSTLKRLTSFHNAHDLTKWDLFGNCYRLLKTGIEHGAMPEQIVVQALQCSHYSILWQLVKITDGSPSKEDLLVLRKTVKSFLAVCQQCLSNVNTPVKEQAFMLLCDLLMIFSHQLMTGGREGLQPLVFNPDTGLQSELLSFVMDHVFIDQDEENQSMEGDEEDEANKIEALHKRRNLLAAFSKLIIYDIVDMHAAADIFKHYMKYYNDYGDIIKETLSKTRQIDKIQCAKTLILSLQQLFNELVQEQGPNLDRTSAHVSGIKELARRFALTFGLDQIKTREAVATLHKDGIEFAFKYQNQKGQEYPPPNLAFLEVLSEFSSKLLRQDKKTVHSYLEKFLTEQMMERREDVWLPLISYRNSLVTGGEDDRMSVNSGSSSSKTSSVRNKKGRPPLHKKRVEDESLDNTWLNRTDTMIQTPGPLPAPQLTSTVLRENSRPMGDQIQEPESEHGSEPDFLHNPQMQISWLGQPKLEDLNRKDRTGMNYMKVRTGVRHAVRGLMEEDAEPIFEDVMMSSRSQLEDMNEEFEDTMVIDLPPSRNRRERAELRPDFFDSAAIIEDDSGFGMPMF


How the values were obtained:
Flag-SA1 WT [1] = molecular target: T1, Flag-SA1 WT; experiment: AFM; details: scale: % of SA1 bound at same locations as telomeric region
Flag-SA1 WT [2] = molecular target: T2, Flag-SA1 WT; experiment: fluorescence anisotropy
[3] = molecular target: TRF1;SA1 (EMSA with TRF1) (human?;human?, UniProt P54274;Q8WVM7 1-439;1-1258, |); experiment: EMSA
Chain of TRF1;SA1 (EMSA with TRF1) (P54274 whole entry, one chain of several): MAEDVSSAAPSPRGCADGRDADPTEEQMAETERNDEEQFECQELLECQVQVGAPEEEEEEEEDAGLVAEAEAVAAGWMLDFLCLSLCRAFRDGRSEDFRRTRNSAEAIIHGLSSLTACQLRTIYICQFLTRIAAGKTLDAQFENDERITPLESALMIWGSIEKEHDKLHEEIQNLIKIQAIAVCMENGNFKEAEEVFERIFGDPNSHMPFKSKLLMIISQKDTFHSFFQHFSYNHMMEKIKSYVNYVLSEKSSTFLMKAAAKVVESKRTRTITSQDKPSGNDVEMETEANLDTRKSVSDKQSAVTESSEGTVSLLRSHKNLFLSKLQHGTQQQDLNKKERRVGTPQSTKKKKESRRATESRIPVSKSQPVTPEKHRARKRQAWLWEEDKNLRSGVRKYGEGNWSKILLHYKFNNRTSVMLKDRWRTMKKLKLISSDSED

| Molecule | Kd (Flag-SA1 WT [2]) | also measured |
| --- | --- | --- |
| genomic control DNA | – | binding signal (Flag-SA1 WT [1]): 27 |
| Scram (scrambled Tel7) (dsDNA) DNA 1: CTGGATCCGTACAGTGTAAGGGTGAGTGGTTGGGTGTGTGGGTGTTGATGTAGAACAAGAATTCGA DNA 2: TCGAATTCTTGTTCTACATCAACACCCACACACCCAACCACTCACCCTTACACTGTACGGATCCAG | 104 ± 13.6 nM | – |
| Tel7 (7 TTAGGG repeats) (dsDNA) DNA 1: CTGGATCCGTACTTAGGGTTAGGGTTAGGGTTAGGGTTAGGGTTAGGGTTAGGGACAAGAATTCGA DNA 2: TCGAATTCTTGTCCCTAACCCTAACCCTAACCCTAACCCTAACCCTAACCCTAAGTACGGATCCAG | 34 ± 5.8 nM | – |
| 3x TTAGGG EMSA duplex (dsDNA) DNA 1: TTAGGGTTAGGGTTAGGGATGTCCAGCAAGCCAGAATTCGGCAGCGTA DNA 2: TACGCTGCCGAATTCTGGCTTGCTGGACATCCCTAACCCTAACCCTAA | – | binding result [3]: binds |
